Results on three molecules are retold here after US20100240774A1, “USE OF HYDROPHOBIN POLYPEPTIDES AS PENETRATION ENHANCERS” (BASF SE, priority 2007, published 2010).

Data set [1] deals with NHDF (normal human dermal fibroblast) cultures. Nature of the data set: antioxidative capacity (DCFH fluorescence after H2O2 stress) in NHDF cultures. Type of data set: cell-based. The conditions noted are these: 24 h treatment, H2O2-induced radicals, protein concentration 0.001%, three independent runs, effect seen in two of three runs. The source says:
The reference substances used were vitamin E (alpha-tocopheryl acetate), vitamin C (Mg ascorbyl phosphate) and quercetin. The test cells used were normal dermal connective tissue cells (fibroblasts) since these produced good signal strengths in the evaluation method. To ascertain the antioxidative properties of the solutions, the NHDF (normal human dermal fibroblast) cultures were sown out on 48-well culture vessels and cultivated until the culture surface was completely covered. The investigations were then carried out with these random cultures. Firstly, the cultures were treated for 24 h with the test solutions. […] The plates containing the cells were inserted into a fluorescence reader and the measurement was started with an introductory phase without stress. […] Low fluorescence thus indicates high antioxidative capacity. […] The y axis here represents the oxidative stress in the cells as the fluorescence which is emitted when free radicals react with the intracellular dye DCFH. […] All fluorescence values were corrected with the protein contents of the cultures following conclusion of the measurements (ascertained with Coomassie stain). This compensates for fluctuations in the cell number, which would also cause fluctuations in the fluorescence (on account of the varying amount of dye). […]

A short description of data set [2]: skin penetration of lactic acid: pH of pigskin after tape stripping. The conditions noted are these: for pH of the skin in the lower skin layers (after stripping) versus control without hydrophobin: hydrophobin coating and subsequent lactic acid treatment; for pH 1x stripping / pH 2x stripping / pH 3x stripping / pH without stripping: pigskin pretreated with 100 μl 0.1% hydrophobin 1.5 hours, then 15% strength lactic acid 10 minutes; for pH 1x stripping: after 1 Corneofix strip; for pH 2x stripping: after 2 Corneofix strips; for pH 3x stripping: after 3 Corneofix strips; for pH without stripping: mean of triple measurements. The class given is in vitro ADME, pig. As to the method: • 1. Preparation of a 1% strength solution of hydrophobin A and B in Millipore water Dissolution of the hydrophobin by vigorous stirring on a magnetic stirrer at 900 rpm for 45 minutes. • 2. Preparation of 1 ml of a ready-to-use hydrophobin solution: • 800 μl Millipore water +100 μl 10-fold buffer (500 mM Tris, 10 mM CaCl2, pH 8) +100 μl hydrophobin solution
This corresponds to a 0.1% strength hydrophobin solution in 50 mM Tris 1 mM CaCl2 and pH 8
• 1. Frozen and dehaired pigskin (not blanched) was defrosted at room temperature. Marking of the application fields measuring ca. 2 cm×2 cm Application of the following solutions (stripping): • control (without solution)
• 2. Incubation of the solutions for 1.5 hours at RT
In order to remove any buffer salts present, all of the application fields were rinsed with 2×500 μl of Millipore water and dabbed with a paper towel. • 3. Application of in each case 100 μl of 15% strength lactic acid to all application fields
Incubation of the solutions for 10 minutes at room temperature
Removal of the excess lactic acid using a paper towel
Measurement of the pH of the pigskin on the respective application fields. Triple measurements were carried out and the mean was used. The water present after a pH measurement was dabbed off using a paper towel. A skin pH meter PH 905 from Courage & Khazaka was used.
Removal of the uppermost loose cell layer using a Corneofix adhesive strip from Courage & Khazaka
Renewed measurement of the pH
Overall, a Corneofix adhesive strip was used 3 times and the pH measured thereafter.

`CC(=O)Oc1c(C)c(C)c2c(c1C)CCC(C)(CCC[C@H](C)CCC[C@H](C)CCCC(C)C)O2` (stereo partly drawn) [Tocopheryl acetate, alpha-tocopheryl acetate]: in data set [1], the “oxidative stress / antioxidative potential (DCFH fluorescence)” value is recorded as “no antioxidative potential”.

B1: hydrophobin A: fusion hydrophobin, SEQ ID NO: 20 from WO2007/14897 and herein (yaad-Xa-dewA-his) (protein)
chain: MAQTGTERVKRGMAEMQKGGVIMDVINAEQAKIAEEAGAVAVMALERVPADIRAAGGVARMADPTIVEEVMNAVSIPVMAKARIGHIVEARVLEAMGVDYIDESEVLTPADEEFHLNKNEYTVPFVCGCRDLGEATRRIAEGASMLRTKGEPGTGNIVEAVRHMRKVNAQVRKVVAMSEDELMTEAKNLGAPYELLLQIKKDGKLPVVNFAAGGVATPADAALMMQLGADGVFVGSGIFKSDNPAKFAKAIVEATTHFTDYKLIAELSKELGTAMKGIEISNLLPEQRMQERGWRSIEGRMRFIVSLLAFTAAATATALPASAAKNAKLATSAAFAKQAEGTTCNVGSIACCNSPAETNNDSLLSGLLGAGLLNGLSGNTGSACAKASLIDQLGLLALVDHTEEGPVCKNIVACCPEGTTNCVAVDNAGAGTKAEGSHHHHHH
modifications: basf-yaad-Xa-dewA-his fusion of Bacillus subtilis yaaD and N-terminal factor Xa proteinase cleavage site and Aspergillus nidulans hydrophobin dewA and his6
As for B1, in data set [2], the “pH of the skin in the lower skin layers (after stripping) versus control without hydrophobin” value was “lower pH”, the “pH 1x stripping” value was 3.08, the “pH 2x stripping” value is given as 3.39 and the “pH 3x stripping” value is 3.63. Further, the pH without stripping in data set [2] was 2.62.

B2: hydrophobin B: fusion hydrophobin, SEQ ID NO: 26 from WO2007/14897; SEQ ID NO: 36 herein (yaad40-Xa-dewA-his) (protein)
chain: MAQTGTERVKRGMAEMQKGGVIMDVINAEQAKIAEEAGAVIEGRMRFIVSLLAFTAAATATALPASAAKNAKLATSAAFAKQAEGTTCNVGSIACCNSPAETNNDSLLSGLLGAGLLNGLSGNTGSACAKASLIDQLGLLALVDHTEEGPVCKNIVACCPEGTTNCVAVDNAGAGTKAEGSHHHHHH
modifications: fusion protein yaad40-Xa-dewA-his
Take B2: in data set [2], the “pH of the skin in the lower skin layers (after stripping) versus control without hydrophobin” value is “lower pH”, the “pH 1x stripping” value is on record as 2.89, the “pH 2x stripping” value was 3.08 and the “pH 3x stripping” value worked out at 3.26. Moreover, in data set [2], the pH without stripping was 2.64.
